# The nanobody polyreactivity screen of Harvey et al. (2022)
# Test: yeast display, Sf9 membrane polyspecificity reagent, FACS + sequencing; frameworks hold sequencing errors
# Procedure, shortened: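 After 36–48 hours of galactose induction, yeast (Saccharomyces cerevisiae BJ5465) displaying a synthetic nanobody library were stained at 4 °C for 1 hour with 10% biotinylated, detergent-solubilized Sf9 membrane reagent. Streptavidin microbeads enriched the stained cells before FACS sorting into low and high (top ~1%) gates on anti-HA and streptavidin fluorescence. Each clone's polyreactivity label reflects its gate of origin.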
row,Sequence,polyreactivity (PSR sort gate)
1,QVQLVESGGGLVQAGGSLRLICAASGTFVTYMGWYRQAPGKERELVAAIRNGGSTNYADSVKGRFTISRDNAKNTVYLQMNSLKPEDTAVYYCAARVTYSRGYRGGSRTKYDYWGQGTQVTVSS,low polyreactivity
2,QVQLVESGGGLVQAGGSLRLICAASGTIFSDNEMGRYRQAPGKEREFVADISSDGSTYYADSVKGRFTISRDNAKNTVYLQMNSLKPEDTAVYYCDADPIFSLYYHYGHFDYWGQGTQVTVSS,low polyreactivity
3,QVQLVESGGGLVQAGGSLRLICAASGVNAMGWYRQAPGKEREFVAAITSIGGSTYYADSVKGRFTISRDNAKNSVYLQMNSLKPEDTAVYYCNTDRGPVKVSPLYESWGQGTQVTVSS,low polyreactivity
4,QVQLVESGGGLVQAGGSLRLICAASGYIFDYYAMGWYRQAPGKERELVAAISWSGGSTYYADSVKGRFTISRDNEKNTVSLQMNSLKPEDTAVYYCAAEGTYYGSDYWGQGTQVTVSS,high polyreactivity
5,QVQLVESGGGLVQAGGSLRLICAASGYIFKYYAMGWYRQAPGKERELVATINYSGGGTYYADSVKGRFTISRDNAKNTVYLQMNSLKPEDTAVYYCAAREKYISYSYYYWGQGTQVTVSS,high polyreactivity
6,QVQLVESGGGLVQAGGSLRLICAASGYIFYDYAMGWYRQAPGKERQLVATITSGGRTYADSVKGRFTISRDNAKNTVYLQMNSLKPEDTAVYYCAVDQYGAMDYWGQGTQVTVSS,low polyreactivity
7,QVQLVESGGGLVQAGGSLRLICAASGYNCKYYAMGWYRAAPGKERELVASITSGGRTNYADSVKGRFTISRDNAKNTVYLQMNSLKPEDTAVYYCASRKPWKFVRTYTYDYWGQGTQLTVSS,high polyreactivity
8,QVQLVESGGGLVQAGGSLRLICAASVSIFTKYAMGWYRQAPGKERELVADITRSGGSTYYADSVKGRFTISRDNAKNTVYLQMNSLKPEDTAVYYCAVDPVRYPYSYDYWGQGTQVTVSS,high polyreactivity
9,QVQLVESGGGLVQAGGSLRLICAAYGRIFQGYAMGWYRQAPGKERELVAAITLSGGSTYYADSVKGRFTISRDNAKNTVYLQMNSLKPEDTAVSYCNAYYPDEPSLYDYWGQGTQVTVSS,low polyreactivity
10,QVQLVESGGGLVQAGGSLRLICAAYGSTFKQYAMGWYRPAPGKERELVAAITRGGRTYYADSVKGRFTISRDNAKNTVYLQMNSLKPEDTAVYYCNAQSWRRYGHFYYWGQGTQVTVSS,high polyreactivity
11,QVQLVESGGGLVQAGGSLRLICADSGRIFRYNSRGWYRQAPAKERELVASISTGGSSTYYADSVKGRFTISRDNAKNTVYLQMNSLKPEYSAFYYCAATPYSYSARSYGPIYRYDYWGQGTQVTVSS,high polyreactivity
12,QVQLVESGGGLVQAGGSLRLICDASGSTFAVYTMGLYIQAPGTEREFVAAISSTGTCTYYADSVKGRFTISRDHAKNTVYLQKNSLKPEDTAVYYCAARWLGYRISYDYWGQGTQVTVSS,high polyreactivity
13,QVQLVESGGGLVQAGGSLRLICGASGSTFQVNAMGWYRQGPGKERELVASISGGSSTNYADSVKGRFTISRDNAKNTVYLQMNSLKPEDTAVYYCAAYYLSGLRVAYDYWGQGTQVTVSS,low polyreactivity
14,QVQLVESGGGLVQAGGSLRLICPASGRTFQYYAMGWYRQAPGKERELVAAIDDSDGDTYYADSVKGRFTISRDYATNTVYLQMISLKPEDTAVYYCAAVDGWTYTGSDYWGQGTQVTVSS,low polyreactivity
15,QVQLVESGGGLVQAGGSLRLICSASGLISRINAMGWYRQAPGKERELVAAISSGGSTNYADSVKGRFTISRDNAKNTVYLQMNSLKPEDTAVYYCAAEVFRVAWYDYWGQGTQVTVSS,high polyreactivity
16,QVQLVESGGGLVQAGGSLRLISAASGFIFLFYAMGWYRQAPGKERELVAAISSGVSTNYADSVKGRFTISRDNAKNTVYLQMNCLKPEDTAVYYCTTTQSTSLLYDYWGPGTQVTVSS,low polyreactivity
17,QVQLVESGGGLVQAGGSLRLISAASGSTFKIYAMGWYRQAPGKERELVAAITWSGGSTYYADSVKGRFTISRDNAKNTVYLQMNSLKPEDPAVYYCAAVQTYSRYYYWGQGTQVTVSS,high polyreactivity
18,QVQLVESGGGLVQAGGSLRLNCAASGSIFDDYAMGWYRQAPGKERELVAAINIRTGSTYYADSVKGRFTISRDNAKNTVYLQMNSLKPEDTAVYYCNRVVRGFVRHLDYWGQGTQVTVSS,low polyreactivity
19,QVQLVESGGGLVQAGGSLRLNCAASGSIFVLYAMGWYRQAPRKERELVAAIRSTGSTNYADSVKGRFTISRDNAKNTVYLQMNSLKPEDTAVYYCAAYRRRTYAVNKEGGYWGQGTQVTVSS,high polyreactivity
20,QVQLVESGGGLVQAGGSLRLNCAASGSTFGRNAKGWYRQAPGKERELVAAISLSTGSTYDADSVKGRFTISRDNAKNTVYLQMNSLKPEDTAVYYCAKEWGHPYHFLYYYWGQGTQVTVSS,high polyreactivity
21,QVQLVESGGGLVQAGGSLRLNCAASGSTFGYYAMGWYRQAPGKQRELVAAITSGASTNYADSVKGRFTISRDNAKNTVYLLMNSLKPEDTAVYYCSAGFQTRTPLNEFDYWGQGTQVTVSS,low polyreactivity
